Here are results for three molecules from article PMC8065111 (Nature Communications, 2021).

The target in one test is DIAPH1 (Homo sapiens) (UniProt O60610). Kind of test: BLI. Particulars: cited from earlier work.
A further test addresses GST-IQGAP1-DBR (human) (UniProt P46940). Description: BLI; Octet RED96; GST-tagged ligands on GST biosensors; analyte 0.5 nM to 5 μM; PBS, 0.002% Tween-20, 0.1 mg/ml BSA; 30 °C; one site-specific binding, saturation curve. On the technique in general: BLI is a label-free optical method that tracks binding on a fibre tip over time.
The target in test [1] is T1, MBP-CLIP170-NT (human).
T1 chain: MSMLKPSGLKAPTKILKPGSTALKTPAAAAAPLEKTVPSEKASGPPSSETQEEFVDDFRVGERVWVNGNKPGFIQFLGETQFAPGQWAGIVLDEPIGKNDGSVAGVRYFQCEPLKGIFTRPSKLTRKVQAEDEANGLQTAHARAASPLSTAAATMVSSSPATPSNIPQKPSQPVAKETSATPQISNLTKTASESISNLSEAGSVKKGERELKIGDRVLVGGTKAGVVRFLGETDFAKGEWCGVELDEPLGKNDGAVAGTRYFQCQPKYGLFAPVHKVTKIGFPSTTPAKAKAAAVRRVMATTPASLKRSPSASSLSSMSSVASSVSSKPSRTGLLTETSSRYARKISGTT
Description: BLI; individual test 2.

The target in test [2] is T1, MBP-CLIP170-NT. Kind of test: BLI; individual test 1.
For the next test, the target named is T2, His6-DIAPH1-NT (human, UniProt O60610 1-575).
T2 construct: human DIAPH1, N-terminal fragment, residues 1-575 of the 1272-residue protein; plasmid pET30a-DIAPH1-NT(1-575aa); Plasmid was a gift from J. Copeland; also called N-terminal fragment of DIAPH1; DIAPH1 N-terminal regulatory domains; source: E. coli BL21, purified (nickel-Sepharose)
Kind of test: pull-down; 0.05 nmol GST-IQGAP1-DBR immobilised on GST beads, first partner equimolar 1 h, then second partner equimolar 1 h; 25 mM HEPES pH 7.5, 250 mM NaCl, 100 mM KCl, 0.5 mM beta-mercaptoethanol, 1 mM PMSF, 0.1% Triton X-100; 4 °C; anti-His6 and anti-MBP blots. To be noted: both partners purified.

In general, Kd refers to the equilibrium constant for the complex coming apart.

Sequence of DIAPH1 (Homo sapiens) (O60610 whole entry): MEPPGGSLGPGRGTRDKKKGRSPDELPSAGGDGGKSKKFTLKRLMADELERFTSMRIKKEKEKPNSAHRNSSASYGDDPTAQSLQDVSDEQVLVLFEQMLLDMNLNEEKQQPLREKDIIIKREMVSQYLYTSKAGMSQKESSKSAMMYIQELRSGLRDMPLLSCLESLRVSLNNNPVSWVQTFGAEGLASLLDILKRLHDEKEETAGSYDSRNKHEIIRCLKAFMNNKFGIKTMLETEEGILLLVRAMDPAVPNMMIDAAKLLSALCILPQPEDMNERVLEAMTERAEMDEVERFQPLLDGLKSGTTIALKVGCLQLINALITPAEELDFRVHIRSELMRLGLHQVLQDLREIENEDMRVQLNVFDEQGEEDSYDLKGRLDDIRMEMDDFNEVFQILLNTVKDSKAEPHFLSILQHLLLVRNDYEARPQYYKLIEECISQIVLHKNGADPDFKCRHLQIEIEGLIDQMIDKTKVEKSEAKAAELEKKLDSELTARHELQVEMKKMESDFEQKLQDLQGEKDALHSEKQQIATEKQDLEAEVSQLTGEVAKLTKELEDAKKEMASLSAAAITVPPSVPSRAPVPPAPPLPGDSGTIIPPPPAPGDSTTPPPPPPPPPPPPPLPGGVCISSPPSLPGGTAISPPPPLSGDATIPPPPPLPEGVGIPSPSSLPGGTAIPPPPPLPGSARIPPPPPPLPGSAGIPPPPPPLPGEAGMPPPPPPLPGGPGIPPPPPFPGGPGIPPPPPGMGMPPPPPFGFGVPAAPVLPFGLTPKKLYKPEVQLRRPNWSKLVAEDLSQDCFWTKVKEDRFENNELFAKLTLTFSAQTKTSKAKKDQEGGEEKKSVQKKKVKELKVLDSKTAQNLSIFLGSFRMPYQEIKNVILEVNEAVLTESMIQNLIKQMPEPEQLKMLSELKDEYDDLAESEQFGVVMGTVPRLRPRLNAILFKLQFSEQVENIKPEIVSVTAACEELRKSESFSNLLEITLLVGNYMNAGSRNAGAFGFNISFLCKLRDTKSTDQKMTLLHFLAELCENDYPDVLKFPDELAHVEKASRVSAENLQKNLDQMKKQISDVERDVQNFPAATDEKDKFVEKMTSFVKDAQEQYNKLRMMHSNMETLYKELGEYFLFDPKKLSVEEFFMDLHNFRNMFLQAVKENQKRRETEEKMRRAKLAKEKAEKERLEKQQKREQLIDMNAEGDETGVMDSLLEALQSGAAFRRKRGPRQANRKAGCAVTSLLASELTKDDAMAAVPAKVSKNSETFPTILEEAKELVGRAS
T2 sequence (O60610 1-575): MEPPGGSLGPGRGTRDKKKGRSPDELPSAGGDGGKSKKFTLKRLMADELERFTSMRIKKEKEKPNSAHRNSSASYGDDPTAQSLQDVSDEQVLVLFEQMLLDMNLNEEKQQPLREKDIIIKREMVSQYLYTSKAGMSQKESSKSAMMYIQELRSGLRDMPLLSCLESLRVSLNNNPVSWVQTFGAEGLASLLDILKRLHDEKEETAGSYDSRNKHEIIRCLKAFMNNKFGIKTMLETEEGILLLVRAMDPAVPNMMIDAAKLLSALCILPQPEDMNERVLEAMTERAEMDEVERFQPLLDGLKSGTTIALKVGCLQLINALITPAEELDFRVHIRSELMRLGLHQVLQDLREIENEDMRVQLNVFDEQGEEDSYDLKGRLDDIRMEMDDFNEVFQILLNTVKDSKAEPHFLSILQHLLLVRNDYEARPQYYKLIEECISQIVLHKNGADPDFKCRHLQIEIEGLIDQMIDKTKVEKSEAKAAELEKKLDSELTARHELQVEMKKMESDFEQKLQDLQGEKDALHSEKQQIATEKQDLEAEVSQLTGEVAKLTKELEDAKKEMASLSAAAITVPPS

As for IQGAP1 (from UniProt P46940), the Kd in the test with DIAPH1 (Homo sapiens) is 81.2 nM.

In the test with GST-IQGAP1-DBR (human), MBP-CLIP170-NT (domain or fragment) registered a Kd of 20.5 nM.

B1: GST-IQGAP1-DBR (domain or fragment, human, UniProt P46940 1500-1657, looked up)
chain: KAELVKLQQTYAALNSKATFYGEQVDYYKSYIKTCLDNLASKGKVSKKPREMKGKKSKKISLKYTAARLHEKGVLLEIEDLQVNQFKNVIFEISPTEEVGDFEVKAKFMGVQMETFMLHYQDLLQLQYEGVAVMKLFDRAKVNVNLLIFLLNKKFYGK
notes: cloned into pDEST15; also called IQGAP-DBR; source: E. coli BL21, purified (glutathione beads)
As for B1, the figures for the Kd with MBP-CLIP170-NT [1] and with MBP-CLIP170-NT [2] were 15.6 nM and 24.1 nM, respectively. Further, the binding result with His6-DIAPH1-NT was “binds”.
